Measured values reported in publication PMC8202330, “Phosphorylation of the LIR Domain of SCOC Modulates ATG8 Binding Affinity and Specificity” (Journal of Molecular Biology, 2021).
Non-standard residues stand in square brackets, D forms with d. *: point of attachment. Biotin = O=C1N[C@H]2[C@H](CS[C@H]2CCCCC(=O)*)N1; pS = N[C@@H](COP(=O)(O)O)C(=O)O; linker = not defined here

B1: GABARAP (for BLI) (natural protein, human, UniProt O95166 1-117, looked up)
chain: MKFVYKEEHPFEKRRSEGEKIRKKYPDRVPVIVEKAPKARIGDLDKKKYLVPSDLTVGQFYFLIRKRIHLRAEDALFFFVNNVIPPTSATMGQLYQEHHEEDFFLYIAYSDESVYGL
notes: human GABARAP in the pAL plasmid (GST, 3C site)
B3: LC3C (for BLI) (natural protein, human, UniProt Q9BXW4 1-126, looked up)
chain: MPPPQKIPSVRPFKQRKSLAIRQEEVAGIRAKFPNKIPVVVERYPRETFLPPLDKTKFLVPQELTMTQFLSIIRSRMVLRATEAFYLLVNNKSLVSMSATMAEIYRDYKDEDGFVYMTYASQETFG
notes: human LC3C in the pAL plasmid (GST, 3C site)

What was measured:
Test in all cases: BLI; biotinylated LIR peptide immobilized on streptavidin biosensor, ATG8 in solution; 25 mM Tris pH 7.5, 150 mM NaCl, 0.5 mM TCEP, 0.1% Tween20, 1 mg/ml BSA; 25 °C; Kd from response against concentration
Conditions in all cases: both partners purified
SCOC aa 6–18 LIR peptide = molecular target: T1, SCOC aa 6–18 LIR peptide (human, reading uncertain)
T1 construct: SCOC isoform 3 aa 6-18; source: synthetic peptide
T1 peptide: {Biotin-linker}-KEEEEDSTFTNIS-NH2

[1] = molecular target: T2, SCOC aa 11–25 LIR peptide (human, reading uncertain)
T2 construct: SCOC isoform 3 aa 11-25; also called SCOC LIR motif (aa 11–25); source: synthetic peptide
T2 peptide: {Biotin-linker}-DSTFTNISLADDIDH-NH2

SCOC pS12 LIR peptide = molecular target: T3, SCOC pS12 LIR peptide (human, phosphoserine at 12; biotin-linker on the N-terminus; C-terminal amide)
T3 construct: SCOC isoform 3 aa 6-25; source: synthetic peptide
T3 peptide: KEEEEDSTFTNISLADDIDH

GABARAPL1 (for BLI) = molecular target: T4, GABARAPL1 (for BLI) (human, UniProt Q9H0R8 1-117)
T4 construct: human GABARAPL1 in the pAL plasmid (GST, 3C site)

LC3C (for BLI) = molecular target: B3
GABARAP (for BLI) = molecular target: B1
LC3A (for BLI) = molecular target: T5, LC3A (for BLI) (human, UniProt Q9H492 1-121)
T5 construct: human LC3A in the pAL plasmid (GST, 3C site)

[2] = molecular target: T6, SCOC pS12/pT15 LIR peptide (human, phosphoserine at 12; phosphothreonine at 15; biotin-linker on the N-terminus; C-terminal amide)
T6 construct: SCOC isoform 3 aa 6-25; also called S12/T15^SCOC; source: synthetic peptide
T6 peptide: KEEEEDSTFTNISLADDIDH

LC3B (for BLI) = LC3B (for BLI) (human, UniProt Q9GZQ8 1-120)
GABARAPL2 (for BLI) = molecular target: T7, GABARAPL2 (for BLI) (human, UniProt P60520 1-117)
T7 construct: human GABARAPL2 in the pAL plasmid (GST, 3C site)
T7 sequence (P60520 whole entry): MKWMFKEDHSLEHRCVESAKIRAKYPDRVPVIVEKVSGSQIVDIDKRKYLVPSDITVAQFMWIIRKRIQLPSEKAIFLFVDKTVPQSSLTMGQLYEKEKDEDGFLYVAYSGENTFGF

Which “fold decrease in affinity against SCOC WT LIR peptide” value (shortened to “fold decrease in affinity”) (SCOC aa 6–18 LIR peptide) does the source give for B1 here?
Its value is 4 fold.

And the “fold decrease in affinity” value [1]?
Its value is 37 fold.

And the “fold increase in affinity over SCOC WT LIR peptide” value (SCOC pS12 LIR peptide)?
The value was 2 fold.

B2: SCOC aa 6–20/pS18 LIR peptide (peptide)
peptide: {Biotin-linker}-KEEEEDSTFTNI[pS]LA-NH2
modifications: reading uncertain
notes: SCOC isoform 3 aa 6-20; source: synthetic peptide
Does B2 bind (GABARAPL1 (for BLI))?
Result: binds

Does B2 bind (LC3C (for BLI))?
Result: binds

Does B2 bind (GABARAP (for BLI))?
Result: binds

Does B2 bind (LC3A (for BLI))?
Result: binds

B3 was tested. Which “fold decrease in affinity” value (SCOC aa 6–18 LIR peptide) did it give?
The value was 22 fold.

What about the “fold decrease in affinity” value [1] of the same binder?
Its value is 16 fold.

What about the “fold increase in affinity over SCOC WT LIR peptide” value [2] of the same binder?
The value was 21 fold.

B4: SCOC aa 6–20 LIR peptide (peptide)
peptide: {Biotin-linker}-KEEEEDSTFTNISLA-NH2
modifications: reading uncertain
notes: SCOC isoform 3 aa 6-20; also called SCOC LIR motif (aa 6–20); source: synthetic peptide
Does B4 bind (GABARAPL1 (for BLI))?
Result: binds

Does B4 bind (LC3C (for BLI))?
Result: binds

Does B4 bind (GABARAP (for BLI))?
Result: binds

B5: SCOC WT (aa 6–25) LIR peptide (peptide)
peptide: {Biotin-linker}-KEEEEDSTFTNISLADDIDH-NH2
modifications: reading uncertain
notes: SCOC isoform 3 aa 6-25; also called SCOC (WT) LIR domain peptide; SCOC LIR; source: synthetic peptide
What does the source list for B5?
Kd (GABARAPL1 (for BLI)): 2.3 µM; Kd (LC3C (for BLI)): 8.7 µM; Kd (LC3B (for BLI)): 270 µM; Kd (GABARAP (for BLI)): 3.6 µM; Kd (LC3A (for BLI)): 27.8 µM; Kd (GABARAPL2 (for BLI)): 44.4 µM
